The text below walks through data of patent publication US20120087858A1 (AbbVie / Abbott, published 2012).

The labels stand for the following.
B1: DVD1460 (bispecific antibody, human IgG1, kappa)
heavy: not shown
light: DIQMTQSPSSLSASVGDRVTITCRASQSISNNLNWYQQKPGKAPKLLIYYTSRFHSGVPSRFSGSGSGTDFTFTISSLQPEDIATYYCQQEHTLPYTFGQGTKLEIKRTVAAPSVFIFPPDIVMTQSHKFMSTTVGDRVSITCKASQAVSSAVAWYQQKPGQSPKLLIYWASTRHTGVPDRFTGSGSVTDFTLTIHNLQAEDLALYYCQQHYSTPFTFGSGTKLEIKRTVAAPSVFIFPPSDEQLKSGTASVVCLLNNFYPREAKVQWKVDNALQSGNSQESVTEQDSKDSTYSLSSTLTLSKADYEKHKVYACEVTHQGLSSPVTKSFNRGEC
notes: DVD-Ig; linker set 2; also called DVD1460H; DVD1460L
B2: DVD1478 (bispecific antibody, human IgG1, kappa)
heavy: not shown
light: DIQMTQSPSSLSASVGDRVTITCRASQSISNNLNWYQQKPGKAPKLLIYYTSRFHSGVPSRFSGSGSGTDFTFTISSLQPEDIATYYCQQEHTLPYTFGQGTKLEIKRTVAAPSVFIFPPDIQMTQSPSSLSASVGDRVTITCRASQGIRIDLGWYQQKPGKAPKRLIYAASTLQSGVPSRFSGSGSGTEFIFTISSLQPEDFASYYCLQHKSYPLTFGGGTKVEIKRTVAAPSVFIFPPSDEQLKSGTASVVCLLNNFYPREAKVQWKVDNALQSGNSQESVTEQDSKDSTYSLSSTLTLSKADYEKHKVYACEVTHQGLSSPVTKSFNRGEC
notes: DVD-Ig; linker set 2; also called DVD1478H; DVD1478L
B3: AB020 (antibody, V domains shown)
VH: QVQLQESGPGLVKPSETLSLTCTVSGFSLIGYDLNWIRQPPGKGLEWIGIIWGDGTTDYNSAVKSRVTISKDTSKNQFSLKLSSVTAADTAVYYCARGGYWYATSYYFDYWGQGTLVTVSS
VL: DIQMTQSPSSLSASVGDRVTITCRASQSISNNLNWYQQKPGKAPKLLIYYTSRFHSGVPSRFSGSGSGTDFTFTISSLQPEDIATYYCQQEHTLPYTFGQGTKLEIKR
notes: Parent antibody; also called NGF parent antibody
B4: DVD1454 (bispecific antibody, human IgG1, kappa)
heavy: not shown
light: DVQMIQSPSSLSASLGDIVTMTCQASQGTSINLNWFQQKPGKAPKLLIYGSSNLEDGVPSRFSGSRYGTDFTLTISSLEDEDLATYFCLQHSYLPYTFGGGTKLEIKRTVAAPSVFIFPPDIVMTQSHKFMSTTVGDRVSITCKASQAVSSAVAWYQQKPGQSPKLLIYWASTRHTGVPDRFTGSGSVTDFTLTIHNLQAEDLALYYCQQHYSTPFTFGSGTKLEIKRTVAAPSVFIFPPSDEQLKSGTASVVCLLNNFYPREAKVQWKVDNALQSGNSQESVTEQDSKDSTYSLSSTLTLSKADYEKHKVYACEVTHQGLSSPVTKSFNRGEC
notes: DVD-Ig; linker set 2; also called DVD1454H; DVD1454L
B5: DVD1525 (bispecific antibody, human IgG1, kappa)
heavy: not shown
light: EIVMTQSPATLSVSPGERATLSCRASQSVSSNLAWYQQKPGQAPRLLIHGASIRATGLPARFSGSGSGTEFTLTISSLQSEDFAVYYCQQYNYWWTFGQGTKVEIKRTVAAPDVQMIQSPSSLSASLGDIVTMTCQASQGTSINLNWFQQKPGKAPKLLIYGSSNLEDGVPSRFSGSRYGTDFTLTISSLEDEDLATYFCLQHSYLPYTFGGGTKLEIKRTVAAPSVFIFPPSDEQLKSGTASVVCLLNNFYPREAKVQWKVDNALQSGNSQESVTEQDSKDSTYSLSSTLTLSKADYEKHKVYACEVTHQGLSSPVTKSFNRGEC
notes: DVD-Ig; linker set 3; also called DVD1525H; DVD1525L
B6: DVD1495 (bispecific antibody, human IgG1, kappa)
heavy: not shown
light: DIVMTQSHKFMSTTVGDRVSITCKASQAVSSAVAWYQQKPGQSPKLLIYWASTRHTGVPDRFTGSGSVTDFTLTIHNLQAEDLALYYCQQHYSTPFTFGSGTKLEIKRTVAAPDVQMIQSPSSLSASLGDIVTMTCQASQGTSINLNWFQQKPGKAPKLLIYGSSNLEDGVPSRFSGSRYGTDFTLTISSLEDEDLATYFCLQHSYLPYTFGGGTKLEIKRTVAAPSVFIFPPSDEQLKSGTASVVCLLNNFYPREAKVQWKVDNALQSGNSQESVTEQDSKDSTYSLSSTLTLSKADYEKHKVYACEVTHQGLSSPVTKSFNRGEC
notes: DVD-Ig; linker set 3; also called DVD1495H; DVD1495L
B7: DVD1517 (bispecific antibody, human IgG1, kappa)
heavy: not shown
light: DIQMTQSPSSLSASVGDRVTITCRASQGIRIDLGWYQQKPGKAPKRLIYAASTLQSGVPSRFSGSGSGTEFIFTISSLQPEDFASYYCLQHKSYPLTFGGGTKVEIKRTVAAPDVQMIQSPSSLSASLGDIVTMTCQASQGTSINLNWFQQKPGKAPKLLIYGSSNLEDGVPSRFSGSRYGTDFTLTISSLEDEDLATYFCLQHSYLPYTFGGGTKLEIKRTVAAPSVFIFPPSDEQLKSGTASVVCLLNNFYPREAKVQWKVDNALQSGNSQESVTEQDSKDSTYSLSSTLTLSKADYEKHKVYACEVTHQGLSSPVTKSFNRGEC
notes: DVD-Ig; linker set 3; also called DVD1517H; DVD1517L
B8: DVD1483 (bispecific antibody, human IgG1, kappa)
heavy: not shown
light: EIVMTQSPATLSVSPGERATLSCRASQSVSSNLAWYQQKPGQAPRLLIHGASIRATGLPARFSGSGSGTEFTLTISSLQSEDFAVYYCQQYNYWWTFGQGTKVEIKRTVAAPSVFIFPPDVQMIQSPSSLSASLGDIVTMTCQASQGTSINLNWFQQKPGKAPKLLIYGSSNLEDGVPSRFSGSRYGTDFTLTISSLEDEDLATYFCLQHSYLPYTFGGGTKLEIKRTVAAPSVFIFPPSDEQLKSGTASVVCLLNNFYPREAKVQWKVDNALQSGNSQESVTEQDSKDSTYSLSSTLTLSKADYEKHKVYACEVTHQGLSSPVTKSFNRGEC
notes: DVD-Ig; linker set 2; also called DVD1483H; DVD1483L
B9: DVD1475 (bispecific antibody, human IgG1, kappa)
heavy: not shown
light: DIQMTQSPSSLSASVGDRVTITCRASQGIRIDLGWYQQKPGKAPKRLIYAASTLQSGVPSRFSGSGSGTEFIFTISSLQPEDFASYYCLQHKSYPLTFGGGTKVEIKRTVAAPSVFIFPPDVQMIQSPSSLSASLGDIVTMTCQASQGTSINLNWFQQKPGKAPKLLIYGSSNLEDGVPSRFSGSRYGTDFTLTISSLEDEDLATYFCLQHSYLPYTFGGGTKLEIKRTVAAPSVFIFPPSDEQLKSGTASVVCLLNNFYPREAKVQWKVDNALQSGNSQESVTEQDSKDSTYSLSSTLTLSKADYEKHKVYACEVTHQGLSSPVTKSFNRGEC
notes: DVD-Ig; linker set 2; also called DVD1475H; DVD1475L

T1 sequence (P01138 122-241 limits assumed): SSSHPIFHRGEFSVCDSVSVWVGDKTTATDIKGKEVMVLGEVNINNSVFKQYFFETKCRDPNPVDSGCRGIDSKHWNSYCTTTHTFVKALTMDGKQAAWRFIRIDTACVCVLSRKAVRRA

One assay concerns the target T1, Recombinant Human β-NGF (human, UniProt P01138 122-241). The assay can be described thus: cell-based or functional assay.
On to B1, for which the “NGF Inhibition Assay EC50 (TF-1 cell proliferation)” value was determined as 1.7 nM.
With B2, the “NGF Inhibition Assay EC50 (TF-1 cell proliferation)” value was determined as 0.019 nM.
On the same count and under the same terms, with B3 the figure was 0.003 nM.

Another assay has as its target T1, Recombinant Human β-NGF. Briefly: Biacore SPR. The protocol:
(§1) The BIACORE assay (Biacore, Inc, Piscataway, N.J.) determines the affinity of antibodies or DVD-Ig with kinetic measurements of on-rate and off-rate constants. Binding of antibodies or DVD-Ig to a target antigen (for example, a purified recombinant target antigen) is determined by surface plasmon resonance-based measurements with a Biacore® 1000 or 3000 instrument (Biacore® AB, Uppsala, Sweden) using running HBS-EP (10 mM HEPES [pH 7.4], 150 mM NaCl, 3 mM EDTA, and 0.005% surfactant P20) at 25° C. All chemicals are obtained from Biacore® AB (Uppsala, Sweden) or otherwise from a different source as described in the text. For example, approximately 5000 RU of goat anti-mouse IgG, (Fcγ), fragment specific polyclonal antibody (Pierce Biotechnology Inc, Rockford, Ill.) diluted in 10 mM sodium acetate (pH 4.5) is directly immobilized across a CMS research grade biosensor chip using a standard amine coupling kit according to manufacturer's instructions and procedures at 25 μg/ml. Unreacted moieties on the biosensor surface are blocked with ethanolamine. Modified carboxymethyl dextran surface in flowcell 2 and 4 is used as a reaction surface. Unmodified carboxymethyl dextran without goat anti-mouse IgG in flow cell 1 and 3 is used as the reference surface. For kinetic analysis, rate equations derived from the 1:1 Langmuir binding model are fitted simultaneously to association and dissociation phases of all eight injections (using global fit analysis) with the use of Biaevaluation 4.0.1 software. Purified antibodies or DVD-Ig are diluted in HEPES-buffered saline for capture across goat anti-mouse IgG specific reaction surfaces. Antibodies or DVD-Ig to be captured as a ligand (25 μg/ml) are injected over reaction matrices at a flow rate of 5 μl/min. The association and dissociation rate constants, kₒₙ (M⁻¹s⁻) and koff(s⁻¹) are determined under a continuous flow rate of 25 μl/min. Rate constants are derived by making kinetic binding measurements at different antigen concentrations ranging from 10-200 nM. The equilibrium dissociation constant (M) of the reaction between antibodies or DVD-Igs and the target antigen is then calculated from the kinetic rate constants by the following formula: KD=koff/kₒₙ. Binding is recorded as a function of time and kinetic rate constants are calculated.
B1: the Kd worked out at 0.00085 nM, the koff stood at 2e-06 s⁻¹ and the kon came out at 2.3e+06 M⁻¹ s⁻¹.
For B2, the Kd is 0.0025 nM, the koff was determined as 6e-06 s⁻¹ and the kon was 2.4e+06 M⁻¹ s⁻¹.
Regarding B3, the Kd came to 0.00673 nM, the koff was determined as 4.08e-06 s⁻¹ and the kon came to 606000 M⁻¹ s⁻¹.

The target of another assay is T2, Recombinant Human SOST (human, UniProt Q9BQB4 24-213).
T2 construct: Biacore reagent from R&D Systems; the Wnt-1/luciferase assay used Human Sclerostin (Abbott PR-1261069); also called Sclerostin; Human Sclerostin
T2 sequence (looked up): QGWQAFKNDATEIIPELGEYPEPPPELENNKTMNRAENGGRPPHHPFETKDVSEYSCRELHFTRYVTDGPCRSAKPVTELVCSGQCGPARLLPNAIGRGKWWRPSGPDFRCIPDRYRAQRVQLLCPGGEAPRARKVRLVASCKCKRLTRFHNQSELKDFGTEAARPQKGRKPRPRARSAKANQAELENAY
The assay can be described thus: Biacore SPR. The protocol:
as §1
For orientation: Surface plasmon resonance follows binding to a sensor surface in real time, without labels.
For the molecule B4, the Kd is 0.084 nM, the koff turned out to be 0.00086 s⁻¹ and the kon is 1e+07 M⁻¹ s⁻¹.
As to B5, the Kd amounted to 9.8 nM, the koff was found to be 0.00089 s⁻¹ and the kon came out at 91000 M⁻¹ s⁻¹.
For B6, in that order: 22 nM, 0.00095 s⁻¹ and 44000 M⁻¹ s⁻¹.
For B7, in that order: 5.5 nM, 0.0005 s⁻¹ and 89000 M⁻¹ s⁻¹.
Turning to B8, the Kd came to 0.78 nM, the off-rate constant (koff) came out at 0.00083 s⁻¹ and the kon was determined as 1.1e+06 M⁻¹ s⁻¹.
As to B9, the Kd amounted to 0.9 nM, the koff worked out at 0.00073 s⁻¹ and the kon came out at 810000 M⁻¹ s⁻¹.

The target of a further assay is T3, Recombinant Human TNF-α/TNFSF1A (human, UniProt P01375 77-233).
T3 construct: Bought reagent; The same protein name (huTNFα) is used in the L929 neutralization assay; also called huTNFα
T3 sequence (P01375 77-233 limits assumed): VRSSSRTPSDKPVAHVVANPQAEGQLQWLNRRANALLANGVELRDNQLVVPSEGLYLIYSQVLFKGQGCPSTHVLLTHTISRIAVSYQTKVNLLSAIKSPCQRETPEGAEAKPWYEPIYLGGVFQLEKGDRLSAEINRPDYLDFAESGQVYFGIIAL
The assay can be described thus: Biacore SPR. On the procedure:
as §1
For the molecule B4, the Kd was determined as 0.21 nM, the off-rate (koff) is 4.9e-05 s⁻¹ and the kon was determined as 230000 M⁻¹ s⁻¹.
On the same counts, the results for B5 are 0.015 nM, 3e-05 s⁻¹ and 2e+06 M⁻¹ s⁻¹.
For B6, in that order: 0.021 nM, 5.4e-05 s⁻¹ and 2.5e+06 M⁻¹ s⁻¹.
Regarding B7, the Kd was 0.018 nM, the koff is 4.7e-05 s⁻¹ and the kon was found to be 2.6e+06 M⁻¹ s⁻¹.
On the same counts, the results for B1 are 0.26 nM, 3.6e-05 s⁻¹ and 140000 M⁻¹ s⁻¹.
For B8, in that order: 0.012 nM, 3.3e-05 s⁻¹ and 2.8e+06 M⁻¹ s⁻¹.
Turning to B2, the Kd is 0.1 nM, the koff was 1.5e-05 s⁻¹ and the kon is 150000 M⁻¹ s⁻¹.
For B9, the Kd amounted to 0.013 nM, the koff was 3.6e-05 s⁻¹ and the kon was 2.7e+06 M⁻¹ s⁻¹.

A further assay addresses T3, Recombinant Human TNF-α/TNFSF1A. The assay can be described thus: cell-based or functional assay.
Consider B4, for which the “TNFα Neutralization Assay EC50 (L929 cells)” value (shortened to “TNFα Neutralization Assay EC50”) is 0.951 nM.
For B5, the “TNFα Neutralization Assay EC50” value was 0.0029 nM.
On to B6, for which the “TNFα Neutralization Assay EC50” value was 0.0038 nM.
With B7, the “TNFα Neutralization Assay EC50” value came out at 0.0012 nM.
Same read-out and setting: with B8 the figure was 0.012 nM.
The same measure, in the same setting: the same measure for B2: 0.329 nM; for B9: 0.002 nM.

As a reminder, the Kd is the concentration at which binding is half-saturated. As a reminder, the koff is the first-order rate constant of dissociation. Usually kon stands for the rate constant with which the complex forms.
